{"source": "patent US20070148669", "proteins": {"B1": {"name": "tumor necrosis factor-alpha converting enzyme (TACE) catalytic domain (protein)", "chain": "RADPDPMKNTCKLLVVADHRFYRYMGRGEESTTTNYLIELIDRVDDIYRNTAWDNAGFKGYGIQIEQIRILKSPQEVKPGEKHYNMAKSYPNEEKDAWDVKMLLEQFSFDIAEEASKVCLAHLFTYQDFDMGTLGLAYVGSPRANSHGGVCPKAYYSPVGKKNIYLNSGLTSTKNYGKTILTKEADLVTTHELGHNFGAEHDPDGLAECAPNEDQGGKYVMYPIAVSGDHENNKMFSQCSKQSIYKTIESKAQECFQERSNKVGSHHHHHH"}}, "key": {"[1]": {"molecular_target": "T1, synthetic peptide Ac-SPLAQA-VRSSSR-NH2 (SEQ ID NO: 17) with the P′1 valine substituted by alanine", "T1 chain": "SPLAQAARSSSR"}, "[2]": {"molecular_target": "T2, synthetic peptide Ac-SPLAQA-VRSSSR-NH2 (SEQ ID NO: 17) with the P′1 valine substituted by glycine", "T2 chain": "SPLAQAGRSSSR"}, "[3]": {"molecular_target": "T3, synthetic peptide Ac-SPLAQA-VRSSSR-NH2 (SEQ ID NO: 17) with the P′1 valine substituted by serine", "T3 chain": "SPLAQASRSSSR"}}, "data": [{"protein": "B1", "values": [{"measurement": "catalytic activity of TACE (product formation quantified at 214 nm after HPLC separation; 100 nM TACE, 100 micromolar substrate)", "setting": "[1]", "result": "decreased activity of TACE to non-detectable levels"}, {"measurement": "catalytic activity of TACE (product formation quantified at 214 nm after HPLC separation; 100 nM TACE, 100 micromolar substrate)", "setting": "[2]", "result": "decreased activity of TACE to non-detectable levels"}, {"measurement": "catalytic activity of TACE (product formation quantified at 214 nm after HPLC separation; 100 nM TACE, 100 micromolar substrate)", "setting": "[3]", "result": "decreased activity of TACE to non-detectable levels"}]}]}
